One molecule from US20180000755A1 (UNIVERSITY OF TOKYO, published 2018) can be followed below.

In the test the target is T1, fragment consisting of the region of the 500th to 656th amino acids of FROUNT protein (Homo sapiens (Human), UniProt Q9BW27 500-656).
T1 construct: Fragment used in the NMR analysis; No tag is mentioned; also called FROUNT C-terminal fragment
T1 sequence: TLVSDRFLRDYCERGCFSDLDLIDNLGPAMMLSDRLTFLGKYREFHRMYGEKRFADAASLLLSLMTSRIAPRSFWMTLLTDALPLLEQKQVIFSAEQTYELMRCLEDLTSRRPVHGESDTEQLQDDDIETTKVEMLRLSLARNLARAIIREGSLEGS
The experiment in a line: NMR chemical shift perturbation.

B1: CCR2 pro-C region fragment of 16 residues (SEQ ID NO:3) (peptide)
peptide: EKFRRYLSVFFRKHIT
notes: Peptide used in the NMR analysis; No biotinylation is mentioned
With B1, the binding result was “binds”.
